Experimental data: US20250121075A1, “ALPHA-FETOPROTEIN BIOCONJUGATES FOR DISEASE TREATMENT” (priority 2021, published 2025)
Numbering of substitutions follows the chain as printed. Like-named read-outs stand apart in the source and are kept apart here.

B1: AFP-ABZ981 conjugate: AFP bioconjugate releasing ABZ981, DPR 4.0, tested in the PK/BD study (conjugate, UniProt P02771 19-609, looked up)
Alpha-fetoprotein: RTLHRNEYGIASILDSYQCTAEISLADLATIFFAQFVQEATYKEVSKMVKDALTAIEKPTGDEQSSGCLENQLPAFLEELCHEKEILEKYGHSDCCSQSEEGRHNCFLAHKKPTPASIPLFQVPEPVTSCEAYEEDRETFMNKFIYEIARRHPFLYAPTILLWAARYDKIIPSCCKAENAVECFQTKAATVTKELRESSLLNQHACAVMKNFGTRTFQAITVTKLSQKFTKVNFTEIQKLVLDVAHVHEHCCRGDVLDCLQDGEKIMSYICSQQDTLSNKITECCKLTTLERGQCIIHAENDEKPEGLSPNLNRFLGDRDFNQFSSGEKNIFLASFVHEYSRRHPQLAVSVILRVAKGYQELLEKCFQTENPLECQDKGEEELQKYIQESQALAKRSCGLFQKLGEYYLQNAFLVAYTKKAPQLTSSELMAITRKMAATAATCCQLSEDKLLACGEGAADIIIGHLCIRHEMTPVNPGVGQCCTSSYANRRPCFSSLVVDETYVPPAFSDDKFIFHKDLCQAQGVALQTMKQEFLINLVKQKPQITEEQLEAVIADFSGLLEKCCQGQEQEVCFAEEGQKLISKTRAALGV
modifications: ABZ981-releasing toxin conjugate, DPR 4.0
B2: AFP-ABZ1827 DPR 5.88: AFP-ABZ1827 bioconjugate, average DPR 5.88 (conjugate, UniProt P02771 19-609, looked up)
Alpha-fetoprotein: B1 Alpha-fetoprotein
modifications: ABZ1827 toxin conjugate, DPR 5.88
B3: AFP-ABZ982 DPR 3.84: AFP-ABZ982 bioconjugate, average DPR 3.84 (conjugate, UniProt P02771 19-609, looked up)
Alpha-fetoprotein: B1 Alpha-fetoprotein
modifications: ABZ982 toxin conjugate, DPR 3.84
B4: AFP-ABZ1827: AFP linked via mono-methylated disulfide linker to ABZ-981, mixture of n 1-11 (conjugate)
chain: B1 Alpha-fetoprotein with N233Q
modifications: non-natural residues
B5: AFP-ABZ982 low DPR: AFP-ABZ982 bioconjugate, average DPR 3.74 (conjugate, UniProt P02771 19-609, looked up)
Alpha-fetoprotein: B1 Alpha-fetoprotein
modifications: ABZ982 toxin conjugate, DPR 3.74
B6: AFP-ABZ982 DPR 5.51: AFP-ABZ982 bioconjugate, average DPR 5.51 (conjugate, UniProt P02771 19-609, looked up)
Alpha-fetoprotein: B1 Alpha-fetoprotein
modifications: ABZ982 toxin conjugate, DPR 5.51
B7: AFP-ABZ982 DPR 2.50: AFP-ABZ982 bioconjugate, average DPR 2.50 (conjugate, UniProt P02771 19-609, looked up)
Alpha-fetoprotein: B1 Alpha-fetoprotein
modifications: ABZ982 toxin conjugate, DPR 2.50
B8: AFP-ABZ1827 DPR 3.35: AFP-ABZ1827 bioconjugate, average DPR 3.35 (conjugate, UniProt P02771 19-609, looked up)
Alpha-fetoprotein: B1 Alpha-fetoprotein
modifications: ABZ1827 toxin conjugate, DPR 3.35
B9: AFP-ABZ982: AFP linked via di-methylated disulfide linker to ABZ-981, mixture of n 1-11 (conjugate)
chain: B1 Alpha-fetoprotein with N233Q
modifications: non-natural residues
B10: AFP-ABZ1827 low DPR: AFP-ABZ1827 bioconjugate, average DPR 3.92 (conjugate, UniProt P02771 19-609, looked up)
Alpha-fetoprotein: B1 Alpha-fetoprotein
modifications: ABZ1827 toxin conjugate, DPR 3.92
B11: AFP-ABZ1827 DPR 4.40: AFP-ABZ1827 bioconjugate, average DPR 4.40 (conjugate, UniProt P02771 19-609, looked up)
Alpha-fetoprotein: B1 Alpha-fetoprotein
modifications: ABZ1827 toxin conjugate, DPR 4.40
B12: AFP-ABZ982 DPR 6.28: AFP-ABZ982 bioconjugate, average DPR 6.28 (conjugate, UniProt P02771 19-609, looked up)
Alpha-fetoprotein: B1 Alpha-fetoprotein
modifications: ABZ982 toxin conjugate, DPR 6.28
B13: AFP-ABZ982 high DPR: AFP-ABZ982 bioconjugate, average DPR 5.81 (conjugate, UniProt P02771 19-609, looked up)
Alpha-fetoprotein: B1 Alpha-fetoprotein
modifications: ABZ982 toxin conjugate, DPR 5.81

What was measured:
SKOV3 cells = experiment: Cytotoxicity of AFP-ABZ982 and AFP-ABZ1827 bioconjugates, 4 day incubation; type: cell-based, human; conditions: read-out: Average IC50 SKOV3 cells (n = 1), 4 days
Procedure: (§1) Bioconjugates containing ABZ981 with two different release functionalities (AFP-ABZ982 and AFP-ABZ1827) were subsequently prepared at DPRs of 2.5 to 6.3. Cells were incubated for 4 days in the presence of the compounds over an 8-point concentration range, with each concentration tested in triplicate. Two experiments performed using freshly thawed U937 cells gave similar results to U937 cells maintained in culture.

U937 cells = experiment: as above; type: cell-based, human; conditions: 4 days
Procedure: as §1

COLO-205 cells = experiment: CellTiter-Glo cell viability, 72 hours; type: cell-based, human
Procedure: Turning to Table 5, two bioconjugates of each of AFP-ABZ982 and AFP-ABZ1827 (4 in total) were prepared at DPRs of approximately 4 (“low DPR”) and 6 (“high DPR”) for efficacy testing in vivo in the COLO-205 human tumor xenograft model. Potency in the COLO-205 cell line prior to implantation was assessed. Briefly, 96 well plates were seeded with COLO-205 cells either at 5,000 or 2,500 cells per well in a total volume to 50 μL per well. Plates were incubated overnight then treated with the bioconjugate at 37° C. for 72 hours and then a CellTiter-Glo assay was performed to measure cell viability. Samples were run in triplicate.

[1] = 25 mg/kg single IV, COLO-205 tumor
Procedure: Bioconjugates containing DM4, DM1 or ABZ981 were resynthesized at a DPR of approximately 4 (Table 3) for comparative testing in a pharmacokinetic/biodistribution (PK/BD) study in mice subcutaneously implanted with COLO-205 tumor xenografts.
The volumes of administration were adjusted to deliver the same amount of bioconjugate (25 mg/kg) to each group of animals as a single IV injection into the tail vein. Blood samples were taken at 0.25 and 1 hours post-injection and blood and tissue samples were taken at 4, 8 and 24 hours to evaluate the pharmacokinetics and biodistribution of the bioconjugates (n=3 per timepoint). A commercially available ELISA kit was used to measure AFP levels and levels of free maytansine and its metabolites were measured by LC/MS.

[2] = tested on: COLO-205 colorectal cancer xenografts; experiment: COLO-205 colon carcinoma xenograft efficacy, daily dosing for 2 weeks; type: in vivo, mice; conditions: dosed at MTD, FIG. 2
Procedure: In the colon carcinoma xenograft model, 7 week old athymic male mice were implanted with 1×10^7 COLO-205 cells subcutaneously in the right flank. Mice with tumors of approximately 100 mm^3 to 200 mm^3 were randomized to receive control (vehicle) or one of the 4 bioconjugates (10 animals/group). Animals were treated daily for 2 weeks with 2 days of rest after 5 doses; tumor volume was assessed twice weekly for 60 days following implantation. FIGS. 2 and 3 reveal the valuable properties of the present bioconjugates in the COLO 205 human xenograft model of colon cancer as shown by this study.

[3] = Maximum tolerated dose in healthy mice; type: in vivo; conditions: Q1D×5 for 2 weeks, clinical observations and AST/ALT
Procedure: The four ABZ981-containing bioconjugates above were resynthesized and formulated in a 10 mM HEPES buffer, 5% sucrose at pH 7.5 (Table 6). Prior to testing the efficacy in tumor-bearing mice, the maximum tolerated dose (MTD) was determined for each bioconjugate in healthy mice, employing the same dosing regimen used for the efficacy study (Q1D×5 for 2 weeks) at doses of 0, 5, 10, 20 and 40 mg/kg. MTD was based on clinical observations made daily during the dosing period and elevations of liver enzymes (AST/ALT) determined at the end of treatment. […] In general, a bioconjugate with a higher DPR which carries a larger amount of toxin would be expected to have a lower MTD.

[4] = freshly thawed cells, read-out: Average IC50 U937 freshly thawed cells (n = 2)
[5] = read-out: Average IC50 U937 cultured cells (n = 1), cells maintained in culture

Molecule	IC50 (SKOV3 cells)	IC50 (U937 cells; [4])	IC50 (U937 cells; [5])	further results
COc1cc2cc(c1-c1ccc(NC(=O)CCC(C)S)cc1)N(C)C(=O)C[C@H](OC(=O)C(C)C)[C@]1(C)O[C@H]1[C@H](C)[C@@H]1C[C@@](O)(NC(=O)O1)[C@H](OC)/C=C/C=C(\C)C2 (some centres unmarked) [ABZ-981]				IC50 (SKOV3 cells; Homo sapiens, SK-OV-3, 96 h): 5.53 nM; IC50 (U937 cells; Homo sapiens, U-937, 96 h, read-out: Average IC50 U937 cultured cells (n = 1), cells maintained in culture): 3.06 nM; IC50 (U937 cells; Homo sapiens, U-937, 96 h, freshly thawed cells, read-out: Average IC50 U937 freshly thawed cells (n = 2)): 2.84 nM; IC50 (COLO-205 cells; Homo sapiens): 6.1 nM
B1				Peak free toxin levels normalized to AFP (toxin release in tumors) [1]: 18 % of the AFP levels in tumor; toxin level in tumor (free maytansine plus metabolites), times higher than DM1 conjugate [1]: approximately 3 times; toxin level in tumor (free maytansine plus metabolites), times higher than DM4 conjugate [1]: ~22 times
B2	35.6 nM	2.93 nM	2.04 nM	
B3	35.5 nM	5.29 nM	4.49 nM	
B4				effect on the growth of the COLO-205 tumors [2]: dramatic, inhibitory effect
B5				Dose (MTD) [3]: 20 mg/kg; IC50 (COLO-205 cells): 12.9 nM
B6	17.5 nM	1.71 nM	2.01 nM	
B7	56.1 nM	5.25 nM	5.22 nM	
B8	66.4 nM	7.07 nM	5.52 nM	
B9				effect on the growth of the COLO-205 tumors [2]: dramatic, inhibitory effect
B10				Dose (MTD) [3]: 10 mg/kg; IC50 (COLO-205 cells): 17.2 nM
B11	58.8 nM	5.98 nM	7.47 nM	
B12	37 nM		6.55 nM	
B13				Dose (MTD) [3]: 10 mg/kg; IC50 (COLO-205 cells): 4.1 nM
